Results: patent US20130059772A1, “Use of Repeat Sequence Protein Polymers in Personal Care Compositions” (DANISCO US INC., priority 2003, published 2013)

What was measured:
MMP-1 = MMP-1 assay (fluorometric ELISA of fibroblast culture media); format: cell-based, human; details: for MMP-1 Activity: 48 hours, untreated 0.11 ± 0.05
Protocol: MMP-1 is a zinc and calcium dependent endopeptidase that is produced and released from both dermal fibroblasts and keratinocytes, and functions to break down collagens located in the extracellular matrix. Active MMP-1 released into the culture media can be assayed using a fluorescence-based ELISA. […] To quantify the active MMP-1 a fluorogenic substrate linked to a quencher molecule is added and any active MMP-1 present will cleave the peptide linkage between the fluorophore and the quencher molecule. This cleavage will eliminate the quencher molecules ability to inhibit the fluorescent signal of the fluorophore allowing a fluorescent signal that will be proportional to the amount of active MMP-1 present.
(§1) The test materials were tested in triplicate.
R&D Products MMP-1 Fluorokine E fluorometric ELISA kits were used in these experiments. A series of MMP-1 standards was prepared ranging from 0.39 ng/ml to 25 ng/ml and an ELISA microplate was prepared by removing any unneeded strips from the plate frame. In each well, 200 μA of Assay Diluent RD1-64 and 50 μA of each sample were added. For the standards, 100 μl of Assay Diluent RD1-64 and 150 μl of each respective standard were added. The plate was incubated for 3±0.25 hours at room temperature on a rocking platform. At the end of the incubation period, each well was aspirated and then washed four times with 400 μl of wash buffer. […] After the incubation period, the plate was washed four times as described above. After the last wash, 200 μl of substrate solution were added to each well and the plate was incubated for 17-20 hours at 37±2° C. (protected from light). At the end of the incubation period, the fluorescence intensity was measured (excitation 320 nm, emission 405 nm) using a fluorometer using a 20 mS integration time. To quantify the amount of MMP-1 activity, a standard curve was generated using known activity levels of MMP-1. […] Mean absorbance values for the test materials and untreated samples were then used to estimate the amount of MMP-1 activity present in each sample.

elastin = assay: Elastin assay (Fastin colorimetric assay of culture media); format: cell-based, human; details: 48 hours, spent fibroblast media, untreated 69 ± 2
Protocol: Elastin is released by fibroblasts (soluble elastin) into the extracellular space where it is then cross-linked to other elastin proteins to form an extensive network of fibers and sheets (insoluble elastin). Soluble elastin can be readily measured from cell culture medium via a colorimetric assay.
as §1
In these experiments, the Biocolor Fastin Elastin Assay kits were used. A 50 μl aliquot of sample material (cell culture medium for soluble elastin) was mixed with 1.0 ml of cold Fastin Precipitating Reagent in a 1.5-ml microcentrifuge tube. In addition to the spent media samples from the fibroblasts, 50 μl aliquots of the test materials diluted into fresh culture media at the concentrations used in the study were also assayed for elastin content. The sample/Fastin Precipitating Reagent mixture was then incubated overnight in an ice water bath to precipitate the elastin. On the following day, the cold microcentrifuge tubes were spun at 10,000×g for 10 minutes to pack the precipitated elastin and the supernatant was removed via careful aspiration.
One (1) ml of Fastin Dye Reagent, along with 100 μl of 90% saturated ammonium sulphate was added to each tube. The microcentrifuge tubes were mixed with a vortex mixer and then allowed to incubate for at least 60 minutes at room temperature, with gentle mechanical agitation. The Fastin Dye Reagent interacts with unique amino acid sequences in the elastin protein. This elastin-dye complex precipitates in the presence of ammonium sulphate. After the incubation was over, the microcentrifuge tubes were spun at 10,000×g for 10 minutes to separate the precipitated elastin-dye complex from the unbound dye. The supernatant was carefully removed and the tubes were inverted to allow any residual supernatant to drain out.
To release the elastin-bound dye, 1.0 ml of Fastin Destain reagent was added to each microcentrifuge tube. The tubes were capped as quickly as possible, as this reagent contains ammonia and methanol. The tubes were then vortexed. The absorbance of this solution was measured by a plate reader at 490 nm (200 μl volume read).
An elastin standard curve was generated using 12.5, 25, and 50 μg aliquots of an Elastin Standard into microcentrifuge tubes (in duplicate). These samples were treated as described above (Elastin Assay) and the absorbance values were used to generate a standard curve of known concentrations. To derive the standard curve for the elastin assay, the absorbance was plotted against the elastin concentration in μg/ml for the standards. […] Mean absorbance values for the test materials and untreated samples were then used to estimate the amount of elastin present in each sample.

[1] = tested on: Fibroblasts (HDFn Cell Line); assay: Initial pilot cell viability dose response (MTT assay); details: initial dose response, summary in words
Protocol: (§2) Initial screening was conducted to identify a test range suitable to determine the effect of a broad range of test material concentrations on cell viability. […] Cultured fibroblasts were exposed to the test materials for 48 hours and then changes in cell viability were determined using an MTT assay (i.e., a colorimetric analysis of the metabolic activity of the cultured cells, described in greater detail below).
(§3) The purple crystals are extracted from the cells with isopropanol and the amount of crystal formation quantified spectrophotometrically. […] A decrease in color intensity can be a sign of toxicity.
(§4) Fibroblasts (Cascade Biologics, HDFn Cell Line, lot#1C0914) were seeded into the individual wells of either a 96-well plate (for the initial pilot work to determine concentration effects on cell viability) in 100 μl of Fibroblast Growth Media (FGM) or in 12-well plates (for the measurement of collagen, elastin and MMP-1) in 1.0 ml of FGM and incubated overnight at 37±2° C. and 5±1% CO2. On the following day, the medium was removed via aspiration to eliminate any non-adherent cells and replaced with fresh FGM. The cells were grown until confluent, with a media change every 48 to 72 hours. Upon reaching confluency, the cells were treated for 24 hours with Dulbecco's Modified Essential Media (DMEM) supplemented with 1.5% FBS to wash out any effects from the growth factors included in the normal FGM. After this 24-hour wash out period, the cells were treated with the test materials at the specified concentrations dissolved in DMEM with 1.5% FBS. Untreated cells (negative controls) received DMEM with 1.5% FBS. The cells were incubated for 48 hours and at the end of the incubation period cell culture medium was either discarded (pilot work) or collected and stored frozen at −75° C. The test materials were tested in triplicate.
(§5) After the 2-day incubation, the cell culture medium was removed and the fibroblasts were washed twice with PBS to remove any remaining test material. After the final wash, either 100 μl (96-well plates) or 300 μl (12-well plates) of DMEM supplemented with 0.5 mg/ml MTT were added to each well and the cells were incubated for 1 hour at 37±2° C. and 5±1% CO2. After the incubation, the DMEM/MTT solution was removed and the cells were washed again once with PBS and then either 100 μl (96-well plates) or 1 ml (12-well plates) of isopropyl alcohol were added to each well to extract the purple formazin crystals. For the 12-well plates, two hundred microliters of the isopropyl extracts was transferred to a 96-well plate. The 96-well plates were read at 540 nm using isopropyl alcohol as a blank. The mean MTT absorbance value for the negative control cells was calculated and used to represent 100% value for cell viability. The individual MTT values from the cells undergoing the various treatments were then divided by the mean value for the negative control cells and expressed as a percent, to determine the change in cell viability caused by each treatment.

[2] = tested on: procollagen type I C-peptide; assay: Procollagen assay (type I C-peptide ELISA of fibroblast culture media); format: cell-based, human; details: 48 hours, untreated 873 ± 111
Excerpt: Collagen is synthesized as part of a much larger procollagen peptide. As the peptide is processed to form a mature collagen protein, the propeptide portion is cleaved off (type I C-peptide). Both the mature collagen protein and the type I C-peptide fragment are then released into the extracellular environment and accumulate in the culture media. Since there is a 1:1 stoichiometric ratio between the two parts of the procollagen peptide, assaying for type I C-peptide will reflect the amount of collagen synthesized. Type 1 C-peptide can be assayed via an ELISA based method.
as §1
Takara procollagen type IC-peptide ELISA kits were used in these experiments. A series of type I C-peptide standards was prepared ranging from 40 ng/ml to 640 ng/ml. An ELISA microplate was then prepared by removing any unneeded strips from the plate frame. To each well in the plate 100 μl of peroxidase-labeled anti procollagen type I-C peptide was added, followed by 20 μA of either sample (tissue culture media) or standard. The microplate was covered and allowed to incubate for 3±0.25 hours at 37° C. After the incubation period, each well was aspirated and washed three times with 400 μl of wash buffer. After the last wash was removed, 100 μl of peroxidase substrate solution (hydrogen peroxide containing tetramethylbenzidine as a chromagen) were added to each well and the plate was incubated for 15±5 minutes at room temperature. After the incubation period, 100 μA of stop solution (1 N sulfuric acid) was added to each well and the plate was read using a microplate reader at 450 nm. To quantify the amount of procollagen present, a standard curve was generated using known concentrations of procollagen type 1-C peptide. […] Mean absorbance values for the test materials and untreated samples was then used to estimate the amount of procollagen type 1-C peptide present in each sample.

[3] = tested on: Fibroblasts (HDFn Cell Line)
Protocol: as §2, §3, §4, §5

[4] = Isoelectric point determination (IEF gel); format: physicochemical; details: stated in production example
Protocol: In this Example, experiments performed to determine the isoelectric point and cloud point of SELP47K (Example 1) are described. The isoelectric point of SELP47K was determined by electrophoresing 5 mg/ml SELP47K solution using Isoelectric Focusing Electrophoresis (IEF) gel and Novex electrophoresis apparatus along with protein standards markers.

B1: GC2596-26-E: collagen-like repeat sequence protein polymer, head-[(GAHGPAGPK)2(GAQGPAGPG)24(GAHGPAGPK)2]4-tail; SEQ ID NO:34 (Example 5) (protein)
chain: MDPVVLQRRDWENPGVTQLNRLAAHPPFASDPMGAHGPAGPKGAHGPAGPKGAQGPAGPGGAQGPAGPGGAQGPAGPGGAQGPAGPGGAQGPAGPGGAQGPAGPGGAQGPAGPGGAQGPAGPGGAQGPAGPGGAQGPAGPGGAQGPAGPGGAQGPAGPGGAQGPAGPGGAQGPAGPGGAQGPAGPGGAQGPAGPGGAQGPAGPGGAQGPAGPGGAQGPAGPGGAQGPAGPGGAQGPAGPGGAQGPAGPGGAQGPAGPGGAQGPAGPGGAHGPAGPKGAHGPAGPKGAHGPAGPKGAHGPAGPKGAQGPAGPGGAQGPAGPGGAQGPAGPGGAQGPAGPGGAQGPAGPGGAQGPAGPGGAQGPAGPGGAQGPAGPGGAQGPAGPGGAQGPAGPGGAQGPAGPGGAQGPAGPGGAQGPAGPGGAQGPAGPGGAQGPAGPGGAQGPAGPGGAQGPAGPGGAQGPAGPGGAQGPAGPGGAQGPAGPGGAQGPAGPGGAQGPAGPGGAQGPAGPGGAQGPAGPGGAHGPAGPKGAHGPAGPKGAHGPAGPKGAHGPAGPKGAQGPAGPGGAQGPAGPGGAQGPAGPGGAQGPAGPGGAQGPAGPGGAQGPAGPGGAQGPAGPGGAQGPAGPGGAQGPAGPGGAQGPAGPGGAQGPAGPGGAQGPAGPGGAQGPAGPGGAQGPAGPGGAQGPAGPGGAQGPAGPGGAQGPAGPGGAQGPAGPGGAQGPAGPGGAQGPAGPGGAQGPAGPGGAQGPAGPGGAQGPAGPGGAQGPAGPGGAHGPAGPKGAHGPAGPKGAHGPAGPKGAHGPAGPKGAQGPAGPGGAQGPAGPGGAQGPAGPGGAQGPAGPGGAQGPAGPGGAQGPAGPGGAQGPAGPGGAQGPAGPGGAQGPAGPGGAQGPAGPGGAQGPAGPGGAQGPAGPGGAQGPAGPGGAQGPAGPGGAQGPAGPGGAQGPAGPGGAQGPAGPGGAQGPAGPGGAQGPAGPGGAQGPAGPGGAQGPAGPGGAQGPAGPGGAQGPAGPGGAQGPAGPGGAHGPAGPKGAHGPAGPKMDPGRYQLSAGRYHYQLVWCQK
modifications: silk-elastin repeat sequence protein copolymer
- MMP-1 Activity (MMP-1; 0.001%): 0.04 ± 0.05 ng/mL
- MMP-1 Activity (MMP-1; 0.005%): -0.01 ± 0.02 ng/mL
- MMP-1 Activity (MMP-1; 0.01%): 0.00 ± 0.02 ng/mL
- effect on MMP-1 activity (MMP-1; summary in words): almost complete loss of detectable MMP-1 activity
- Elastin (elastin; 0.001%): 63 ± 10 μg/ml media
- Elastin (elastin; 0.005%): 59 ± 5 μg/ml media
- Elastin (elastin; 0.01%): 50 ± 18 μg/ml media
- effect on the number of viable cells [1]: reduce the number of viable cells
- Type-1 C Peptide ([2]; 0.001%): 838 ± 75 ng/mL
- Type-1 C Peptide ([2]; 0.005%): 1162 ± 194 ng/mL
- Type-1 C Peptide ([2]; 0.01%): 956 ± 110 ng/mL
- concentrations with adverse effects on cell viability [3]: ≥ 0.07%
- pI of the protein [4]: 11.18
